± gives the standard error. For some of these results: Fewer inactive variants are shown than the library holds.

The labels stand for the following.
B1: glmS ribozyme (parent)
chain: AUAAAAGCGCCAGAACUACAGAAAUGUAGUUGACGAGGAGGAGGUUUAUCGAAUUUUCGGCGGAUGCCUCCAAA

Holding throughout (conditions): with glucosamine-6-phosphate
The variants in data set [1] derive from B1. Description: kcat; higher = faster cleavage; RNA array. In short, it runs like this: (§1)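 In situ transcription by E. coli RNA polymerase produced barcoded ribozyme variants on sequenced MiSeq chips, and a hybridised Cy3 probe tracked them at 37 °C. Glucosamine-6-phosphate was flowed in at 40 μM to 10 mM in HEPES/KCl/Mg(OAc)2 buffer. kcat and KM were taken from weighted Michaelis–Menten fits of kobs values from exponential decay fits.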

Variants of B1 are the subject of data set [2]. Description: self-cleavage kobs at 40 uM GlcN6P; higher = faster cleavage; RNA array. The method in brief:
as §1

Data set [3] covers variants of B1. The data set can be described thus: self-cleavage kobs at 160 uM GlcN6P; higher = faster cleavage; RNA array. The method in brief: as §1
In data set [4] the parent is B1. The data set can be described thus: self-cleavage kobs at 640 uM GlcN6P; higher = faster cleavage; RNA array. The method in brief:
as §1

Data set [5] covers variants of B1. Description: self-cleavage kobs at 2500 uM GlcN6P; higher = faster cleavage; RNA array. In short, it runs like this:
as §1

Data set [6] covers variants of B1. The data set can be described thus: self-cleavage kobs at 10000 uM GlcN6P; higher = faster cleavage; RNA array. In short, it runs like this:
as §1

The variants in data set [7] derive from B1. Description: KM; higher = weaker cofactor use; RNA array. In short, it runs like this:
as §1

G37A U54G: the kcat in the data set with glucosamine-6-phosphate [1] was 0.00267 ± 0.00094 s⁻¹. For the same variant, the “self-cleavage kobs at 40 uM GlcN6P” value with glucosamine-6-phosphate [2] was found to be 6.88e-05 ± 1.3e-05 s⁻¹. The “self-cleavage kobs at 160 uM GlcN6P” value with glucosamine-6-phosphate [3] was 0.000132 ± 2.9e-05 s⁻¹. In the data set with glucosamine-6-phosphate [4], the “self-cleavage kobs at 640 uM GlcN6P” value came to 0.000413 ± 9.4e-05 s⁻¹. For the same variant, the “self-cleavage kobs at 2500 uM GlcN6P” value with glucosamine-6-phosphate [5] is 0.000936 ± 0.00022 s⁻¹. The “self-cleavage kobs at 10000 uM GlcN6P” value with glucosamine-6-phosphate [6] was found to be 0.00234 ± 0.00032 s⁻¹.

For G32A C68A, in the data set with glucosamine-6-phosphate [1], the kcat was determined as 1.56e-05 ± 4.4e-06 s⁻¹.

On to G38A C58G, for which the catalytic constant (kcat) with glucosamine-6-phosphate [1] was determined as 1.16e-05 ± 3.2e-06 s⁻¹. Besides, the “self-cleavage kobs at 160 uM GlcN6P” value with glucosamine-6-phosphate [3] was less than 1e-05 s⁻¹. Besides, in the data set with glucosamine-6-phosphate [6], the “self-cleavage kobs at 10000 uM GlcN6P” value is less than 1e-05 s⁻¹.

With G40A G41A, the kcat with glucosamine-6-phosphate [1] was found to be 0.000106 ± 2.5e-05 s⁻¹. Besides, in the data set with glucosamine-6-phosphate [4], the “self-cleavage kobs at 640 uM GlcN6P” value stood at 6.83e-05 ± 1.2e-05 s⁻¹. Further, the “self-cleavage kobs at 2500 uM GlcN6P” value in the data set with glucosamine-6-phosphate [5] was 0.000163 ± 2.3e-05 s⁻¹. Moreover, the “self-cleavage kobs at 10000 uM GlcN6P” value with glucosamine-6-phosphate [6] was 8.89e-05 ± 1e-05 s⁻¹.

Turning to C16G G59A C71G, the kcat with glucosamine-6-phosphate [1] stood at 1.74e-05 ± 4.8e-06 s⁻¹.

As for C67U C70U C71U, the kcat with glucosamine-6-phosphate [1] is 1.14e-05 ± 1.2e-06 s⁻¹. Further, the KM with glucosamine-6-phosphate [7] stood at 339 ± 160 µM.

On to G60U C67A, for which the kcat in the data set with glucosamine-6-phosphate [1] is less than 1e-05 s⁻¹. Moreover, in the data set with glucosamine-6-phosphate [2], the “self-cleavage kobs at 40 uM GlcN6P” value was less than 1e-05 s⁻¹. Further, the “self-cleavage kobs at 160 uM GlcN6P” value with glucosamine-6-phosphate [3] is less than 1e-05 s⁻¹. The “self-cleavage kobs at 2500 uM GlcN6P” value in the data set with glucosamine-6-phosphate [5] is less than 1e-05 s⁻¹.

Regarding A52G A64G, the catalytic constant (kcat) with glucosamine-6-phosphate [1] was 0.00183 ± 0.00049 s⁻¹. For the same variant, in the data set with glucosamine-6-phosphate [7], the KM came out at 3690 ± 1500 µM. Moreover, the “self-cleavage kobs at 40 uM GlcN6P” value in the data set with glucosamine-6-phosphate [2] was found to be 2.83e-05 ± 7.3e-06 s⁻¹. Also, the “self-cleavage kobs at 160 uM GlcN6P” value with glucosamine-6-phosphate [3] amounted to 6.03e-05 ± 9.6e-06 s⁻¹. For the same variant, the “self-cleavage kobs at 640 uM GlcN6P” value with glucosamine-6-phosphate [4] came to 0.00036 ± 3.9e-05 s⁻¹. In the data set with glucosamine-6-phosphate [5], the “self-cleavage kobs at 2500 uM GlcN6P” value came out at 0.000616 ± 0.0001 s⁻¹. Further, the “self-cleavage kobs at 10000 uM GlcN6P” value with glucosamine-6-phosphate [6] is 0.00136 ± 0.00013 s⁻¹.

As to G32C C67G, the kcat with glucosamine-6-phosphate [1] is 2.22e-05 ± 2.6e-06 s⁻¹. Further, the KM with glucosamine-6-phosphate [7] stood at 2060 ± 980 µM. Besides, the “self-cleavage kobs at 10000 uM GlcN6P” value with glucosamine-6-phosphate [6] stood at 1.85e-05 ± 8.6e-06 s⁻¹.

As to A14G U31A U57A C71G, the kcat with glucosamine-6-phosphate [1] amounted to 2.93e-05 ± 8.2e-06 s⁻¹.

Turning to G7A A53U, the kcat with glucosamine-6-phosphate [1] amounted to 2.79e-05 ± 1.1e-05 s⁻¹.

As to G41C A53U, the kcat with glucosamine-6-phosphate [1] was found to be 0.000241 ± 3.2e-05 s⁻¹. Besides, the KM in the data set with glucosamine-6-phosphate [7] was 1290 ± 380 µM. Further, the “self-cleavage kobs at 640 uM GlcN6P” value in the data set with glucosamine-6-phosphate [4] is 7.44e-05 ± 1.2e-05 s⁻¹. Besides, the “self-cleavage kobs at 2500 uM GlcN6P” value in the data set with glucosamine-6-phosphate [5] is 0.000197 ± 3.2e-05 s⁻¹. Besides, the “self-cleavage kobs at 10000 uM GlcN6P” value with glucosamine-6-phosphate [6] worked out at 0.000201 ± 2.9e-05 s⁻¹.

As to G29C A39U, the kcat in the data set with glucosamine-6-phosphate [1] is 0.00205 ± 0.00072 s⁻¹. Besides, the “self-cleavage kobs at 40 uM GlcN6P” value with glucosamine-6-phosphate [2] came to 5.54e-05 ± 1.3e-05 s⁻¹. For the same variant, the “self-cleavage kobs at 160 uM GlcN6P” value with glucosamine-6-phosphate [3] is 6.75e-05 ± 1.6e-05 s⁻¹. The “self-cleavage kobs at 640 uM GlcN6P” value in the data set with glucosamine-6-phosphate [4] was found to be 0.000323 ± 6.3e-05 s⁻¹. Further, the “self-cleavage kobs at 2500 uM GlcN6P” value with glucosamine-6-phosphate [5] was 0.000753 ± 0.00014 s⁻¹. For the same variant, the “self-cleavage kobs at 10000 uM GlcN6P” value with glucosamine-6-phosphate [6] was 0.00153 ± 0.00022 s⁻¹.

As to A12C A64G, the kcat with glucosamine-6-phosphate [1] came to 0.000378 ± 6.7e-05 s⁻¹. For the same variant, the KM in the data set with glucosamine-6-phosphate [7] worked out at 1600 ± 500 µM. The “self-cleavage kobs at 640 uM GlcN6P” value with glucosamine-6-phosphate [4] was 0.000111 ± 1.5e-05 s⁻¹. Also, the “self-cleavage kobs at 2500 uM GlcN6P” value with glucosamine-6-phosphate [5] stood at 0.000209 ± 3.2e-05 s⁻¹. Besides, the “self-cleavage kobs at 10000 uM GlcN6P” value with glucosamine-6-phosphate [6] amounted to 0.000415 ± 0.0001 s⁻¹.

For the variant G32A C67U, the kcat in the data set with glucosamine-6-phosphate [1] was determined as 0.000858 ± 0.0002 s⁻¹. In addition, the KM in the data set with glucosamine-6-phosphate [7] came out at 1940 ± 760 µM. Further, in the data set with glucosamine-6-phosphate [3], the “self-cleavage kobs at 160 uM GlcN6P” value came out at 7.5e-05 ± 1.5e-05 s⁻¹. For the same variant, the “self-cleavage kobs at 640 uM GlcN6P” value in the data set with glucosamine-6-phosphate [4] was found to be 0.00023 ± 2.1e-05 s⁻¹. Also, in the data set with glucosamine-6-phosphate [5], the “self-cleavage kobs at 2500 uM GlcN6P” value amounted to 0.000374 ± 4.7e-05 s⁻¹. The “self-cleavage kobs at 10000 uM GlcN6P” value in the data set with glucosamine-6-phosphate [6] amounted to 0.000854 ± 8.5e-05 s⁻¹.

Consider U31C U46A, for which the kcat with glucosamine-6-phosphate [1] was determined as 0.000286 ± 7.3e-06 s⁻¹. In the data set with glucosamine-6-phosphate [7], the KM came out at 2230 ± 110 µM. For the same variant, in the data set with glucosamine-6-phosphate [4], the “self-cleavage kobs at 640 uM GlcN6P” value turned out to be 6.31e-05 ± 9.4e-06 s⁻¹. Also, the “self-cleavage kobs at 2500 uM GlcN6P” value with glucosamine-6-phosphate [5] was 0.000152 ± 2.9e-05 s⁻¹. In addition, the “self-cleavage kobs at 10000 uM GlcN6P” value in the data set with glucosamine-6-phosphate [6] worked out at 0.000234 ± 3.3e-05 s⁻¹.

As to G13U G59U C67U, the kcat with glucosamine-6-phosphate [1] worked out at 1.71e-05 ± 6.1e-06 s⁻¹.

Consider C11A A15C, for which the kcat with glucosamine-6-phosphate [1] turned out to be 7.9e-05 ± 2.8e-05 s⁻¹. Also, the “self-cleavage kobs at 2500 uM GlcN6P” value in the data set with glucosamine-6-phosphate [5] stood at 8.45e-05 ± 1.9e-05 s⁻¹. Also, the “self-cleavage kobs at 10000 uM GlcN6P” value in the data set with glucosamine-6-phosphate [6] worked out at 5.67e-05 ± 2.2e-05 s⁻¹.

On to G44U U46G, for which, in the data set with glucosamine-6-phosphate [1], the kcat was 0.000218 ± 4.7e-05 s⁻¹. Further, in the data set with glucosamine-6-phosphate [7], the KM amounted to 3350 ± 1300 µM. Moreover, the “self-cleavage kobs at 40 uM GlcN6P” value with glucosamine-6-phosphate [2] is less than 1e-05 s⁻¹. In addition, the “self-cleavage kobs at 640 uM GlcN6P” value with glucosamine-6-phosphate [4] came out at 2.83e-05 ± 1e-05 s⁻¹. Further, the “self-cleavage kobs at 2500 uM GlcN6P” value with glucosamine-6-phosphate [5] was determined as 0.000102 ± 1.5e-05 s⁻¹. Further, the “self-cleavage kobs at 10000 uM GlcN6P” value with glucosamine-6-phosphate [6] worked out at 0.000146 ± 3.9e-05 s⁻¹.
